Measured values as given in article PMC11708914.

Experiments:
[1] = biological target: USUV HA-NS5 (HA-tagged Usutu virus NS5) (Usutu virus) (UniProt Q5WPU5); assay: co-IP; anti-HA agarose beads; lysates of transfected 293 T cells (lysis buffer with protease inhibitors and benzonase), overnight at 4 °C; UBA1 detected by Western blot
[2] = biological target: WNV HA-NS5 (HA-tagged West Nile virus NS5) (West Nile virus) (UniProt P06935); assay: as above
[3] = biological target: ZIKV HA-NS5 (full-length Zika virus NS5 fused to an HA-tag in its N-terminus) (Zika virus); assay: as above
[4] = biological target: Recombinant His-tagged ZIKV NS5 (Zika virus); assay: pull-down; Ni-NTA agarose resin; 3 mg of whole-cell protein from 293 T cells incubated with 90 µg of recombinant His-tagged bait (BSA as control); UBA1 detected by Western blot

UniProt Q5WPU5, sequence (Q5WPU5 2530-3434): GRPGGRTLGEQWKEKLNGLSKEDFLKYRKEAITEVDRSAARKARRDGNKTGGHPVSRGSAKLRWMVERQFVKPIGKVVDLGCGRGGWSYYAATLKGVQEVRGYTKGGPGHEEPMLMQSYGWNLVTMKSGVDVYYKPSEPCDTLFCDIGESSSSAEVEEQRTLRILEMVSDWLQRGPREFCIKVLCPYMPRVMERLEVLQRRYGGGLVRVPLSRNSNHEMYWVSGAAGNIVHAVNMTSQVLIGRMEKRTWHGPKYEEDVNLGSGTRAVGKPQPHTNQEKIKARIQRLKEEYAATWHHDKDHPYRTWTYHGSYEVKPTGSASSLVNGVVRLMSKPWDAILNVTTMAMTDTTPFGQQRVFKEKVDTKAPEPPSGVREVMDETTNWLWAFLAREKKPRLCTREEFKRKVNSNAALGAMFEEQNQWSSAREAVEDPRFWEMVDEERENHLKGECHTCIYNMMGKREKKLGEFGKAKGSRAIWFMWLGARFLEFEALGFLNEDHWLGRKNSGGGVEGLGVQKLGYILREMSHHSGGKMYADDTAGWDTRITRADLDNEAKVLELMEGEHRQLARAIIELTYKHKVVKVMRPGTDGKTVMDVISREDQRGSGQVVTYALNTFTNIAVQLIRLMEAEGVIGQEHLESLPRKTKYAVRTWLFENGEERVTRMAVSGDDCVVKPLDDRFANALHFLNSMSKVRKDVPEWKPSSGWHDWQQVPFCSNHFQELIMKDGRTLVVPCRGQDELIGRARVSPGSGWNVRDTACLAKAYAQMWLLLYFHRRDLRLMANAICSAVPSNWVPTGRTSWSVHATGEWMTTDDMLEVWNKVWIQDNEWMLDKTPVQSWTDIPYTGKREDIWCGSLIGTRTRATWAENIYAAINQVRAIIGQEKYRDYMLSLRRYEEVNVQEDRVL
UniProt P06935, sequence (P06935 2526-3430): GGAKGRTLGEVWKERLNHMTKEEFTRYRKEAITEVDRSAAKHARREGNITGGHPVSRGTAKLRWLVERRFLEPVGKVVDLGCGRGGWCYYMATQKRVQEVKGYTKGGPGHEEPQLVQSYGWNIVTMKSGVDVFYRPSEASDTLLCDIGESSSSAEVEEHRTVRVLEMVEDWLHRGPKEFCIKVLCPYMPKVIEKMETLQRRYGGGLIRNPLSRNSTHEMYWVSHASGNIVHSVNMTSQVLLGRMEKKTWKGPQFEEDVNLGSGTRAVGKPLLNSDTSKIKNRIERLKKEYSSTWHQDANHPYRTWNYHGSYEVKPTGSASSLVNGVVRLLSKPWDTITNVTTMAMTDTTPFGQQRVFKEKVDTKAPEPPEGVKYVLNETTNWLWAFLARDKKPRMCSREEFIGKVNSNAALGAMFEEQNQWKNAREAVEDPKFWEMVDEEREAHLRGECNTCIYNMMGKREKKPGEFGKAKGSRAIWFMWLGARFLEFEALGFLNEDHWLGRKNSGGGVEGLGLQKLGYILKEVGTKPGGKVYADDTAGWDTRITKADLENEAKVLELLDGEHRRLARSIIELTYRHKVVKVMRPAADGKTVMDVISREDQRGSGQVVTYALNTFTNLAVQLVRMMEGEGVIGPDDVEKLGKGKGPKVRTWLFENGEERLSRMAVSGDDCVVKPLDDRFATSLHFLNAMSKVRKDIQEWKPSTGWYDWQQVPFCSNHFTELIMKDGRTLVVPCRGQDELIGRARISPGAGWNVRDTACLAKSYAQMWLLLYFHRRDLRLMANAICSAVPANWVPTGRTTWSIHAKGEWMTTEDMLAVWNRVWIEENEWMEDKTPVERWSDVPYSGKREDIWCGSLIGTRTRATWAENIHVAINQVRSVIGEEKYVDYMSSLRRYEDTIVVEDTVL

Q: For “Ubiquitin-like modifier-activating enzyme 1 (UBA1), endogenous”, which fold enrichment over controls [1] is on record?
A: > 100 fold

Q: What about the fold enrichment over controls [2] of the same substance?
A: > 100 fold

Q: What about the fold enrichment over controls (empty vector or EYFP) [3] of the same substance?
A: > 100 fold

Q: And the amount of UBA1 relative to controls [4]?
A: > 4 times
